Laboratory results as given in PMC6555819, “Comprehensive study of nuclear receptor DNA binding provides a revised framework for understanding receptor specificity”.

B1: NRC3_wobSeed90_DR3_T12A_o1 (dsDNA)
DNA 1: GCCATACAGGGACAGCTAGGCCAGAGTAGGGACGGCGCGATTGACAGCGTAGAATGAAGG
DNA 2: CCTTCATTCTACGCTGTCAATCGCGCCGTCCCTACTCTGGCCTAGCTGTCCCTGTATGGC
B2: NRC3_wobSeed58_DR2_A9T_o1 (dsDNA)
DNA 1: GCATCGAATGGTCGTGAGGTGAGTATACAGAAAGGCGCGATTGACAGCGTAGAATGAAGG
DNA 2: CCTTCATTCTACGCTGTCAATCGCGCCTTTCTGTATACTCACCTCACGACCATTCGATGC
B3: NRC3_random_hg19_21_o1 (dsDNA)
DNA 1: GCAACATTTCAGTATACTTTCTAGCAACTCTGGGTAGCGATTGACAGCGTAGAATGAAGG
DNA 2: CCTTCATTCTACGCTGTCAATCGCTACCCAGAGTTGCTAGAAAGTATACTGAAATGTTGC
B4: NRC3_wobSeed27_DR1_G17T_o1 (dsDNA)
DNA 1: GCACTCGGAGGACAAATGTCAGAGCTACGCCAGTGAGCGATTGACAGCGTAGAATGAAGG
DNA 2: CCTTCATTCTACGCTGTCAATCGCTCACTGGCGTAGCTCTGACATTTGTCCTCCGAGTGC
B5: NRC3_random_hg19_2_o1 (dsDNA)
DNA 1: GCGTAACAAGAACAAGGCCATACTTTCATGCATCTAGCGATTGACAGCGTAGAATGAAGG
DNA 2: CCTTCATTCTACGCTGTCAATCGCTAGATGCATGAAAGTATGGCCTTGTTCTTGTTACGC
B6: NRC3_wobSeed30_DR1_C20G_o1 (dsDNA)
DNA 1: GCACTAGCAGGCCAAGGGTGACTCAAGATTAGTCCGGCGATTGACAGCGTAGAATGAAGG
DNA 2: CCTTCATTCTACGCTGTCAATCGCCGGACTAATCTTGAGTCACCCTTGGCCTGCTAGTGC
B7: NRC3_random_hg19_89_o1 (dsDNA)
DNA 1: GCCAAGATGAATCAGAAGCATGCCATCCGAATTCCAGCGATTGACAGCGTAGAATGAAGG
DNA 2: CCTTCATTCTACGCTGTCAATCGCTGGAATTCGGATGGCATGCTTCTGATTCATCTTGGC
B8: NRC3_random_hg19_160_o1 (dsDNA)
DNA 1: GCATCCCTGCAATGGCCTGCAAAGTTACAGGTTGCAGCGATTGACAGCGTAGAATGAAGG
DNA 2: CCTTCATTCTACGCTGTCAATCGCTGCAACCTGTAACTTTGCAGGCCATTGCAGGGATGC
B9: NRC3_wobSeed34_DR1_G10A_o1 (dsDNA)
DNA 1: GCATCGAAAAGTCGAAGGTGAGTATACCCACCCGAAGCGATTGACAGCGTAGAATGAAGG
DNA 2: CCTTCATTCTACGCTGTCAATCGCTTCGGGTGGGTATACTCACCTTCGACTTTTCGATGC
B10: NRC3_random_hg19_365_o1 (dsDNA)
DNA 1: GCAGTAGACACAGGGTTTCACCGTGTTGGCCAGGATGCGATTGACAGCGTAGAATGAAGG
DNA 2: CCTTCATTCTACGCTGTCAATCGCATCCTGGCCAACACGGTGAAACCCTGTGTCTACTGC
B11: NRC3_wobSeed61_DR2_G10C_o1 (dsDNA)
DNA 1: GCCGTCCAACGTCAGCAGGTCAGTGAAAGCGACGTGGCGATTGACAGCGTAGAATGAAGG
DNA 2: CCTTCATTCTACGCTGTCAATCGCCACGTCGCTTTCACTGACCTGCTGACGTTGGACGGC
B12: NRC3_wobSeed18_DR0_G9C_o1 (dsDNA)
DNA 1: GCGATACACGGTCAAGGCCAGAGTACGCGTATTGATGCGATTGACAGCGTAGAATGAAGG
DNA 2: CCTTCATTCTACGCTGTCAATCGCATCAATACGCGTACTCTGGCCTTGACCGTGTATCGC
B13: NRC3_random_hg19_240_o1 (dsDNA)
DNA 1: GCGACCATCTCCACACTGCACGATGATGAGATCCTGGCGATTGACAGCGTAGAATGAAGG
DNA 2: CCTTCATTCTACGCTGTCAATCGCCAGGATCTCATCATCGTGCAGTGTGGAGATGGTCGC
B14: NRC3_random_hg19_301_o1 (dsDNA)
DNA 1: GCGAGAACAGACTAACACACACACACACACACACACGCGATTGACAGCGTAGAATGAAGG
DNA 2: CCTTCATTCTACGCTGTCAATCGCGTGTGTGTGTGTGTGTGTGTGTTAGTCTGTTCTCGC
B15: NRC3_wobSeed88_DR3_o1 (dsDNA)
DNA 1: GCTAGCCTAGGTCATGCGGGCCAGTATAGTGTCGGCGCGATTGACAGCGTAGAATGAAGG
DNA 2: CCTTCATTCTACGCTGTCAATCGCGCCGACACTATACTGGCCCGCATGACCTAGGCTAGC
B16: NRC3_random_hg19_292_o1 (dsDNA)
DNA 1: GCCAAGACCCTAAGGAACCACTGTGTGGGATGTCAGGCGATTGACAGCGTAGAATGAAGG
DNA 2: CCTTCATTCTACGCTGTCAATCGCCTGACATCCCACACAGTGGTTCCTTAGGGTCTTGGC
B17: NRC3_wobSeed39_DR1_G10A_o1 (dsDNA)
DNA 1: GCCGAACTAAGTCAAAGGACAGTGAAAGGCGACGTAGCGATTGACAGCGTAGAATGAAGG
DNA 2: CCTTCATTCTACGCTGTCAATCGCTACGTCGCCTTTCACTGTCCTTTGACTTAGTTCGGC
B18: NRC3_random_hg19_498_o1 (dsDNA)
DNA 1: GCGACCACAGGTATAGTGTGCTGGACTATGTTCCAGGCGATTGACAGCGTAGAATGAAGG
DNA 2: CCTTCATTCTACGCTGTCAATCGCCTGGAACATAGTCCAGCACACTATACCTGTGGTCGC
B19: NRC3_random_hg19_376_o1 (dsDNA)
DNA 1: GCTTCCTCTTCCTCTGTGCCTGTGTAGCCTCCATCCGCGATTGACAGCGTAGAATGAAGG
DNA 2: CCTTCATTCTACGCTGTCAATCGCGGATGGAGGCTACACAGGCACAGAGGAAGAGGAAGC
B20: NRC3_random_hg19_366_o1 (dsDNA)
DNA 1: GCACTACTACTGCTGTTGAGAAACCTGCATTGTGGCGCGATTGACAGCGTAGAATGAAGG
DNA 2: CCTTCATTCTACGCTGTCAATCGCGCCACAATGCAGGTTTCTCAACAGCAGTAGTAGTGC
B21: NRC3_wobSeed69_DR2_G10A_o1 (dsDNA)
DNA 1: GCAGTCAAAATTCACTAGGTAACGTAAGATTCAGCTGCGATTGACAGCGTAGAATGAAGG
DNA 2: CCTTCATTCTACGCTGTCAATCGCAGCTGAATCTTACGTTACCTAGTGAATTTTGACTGC
B22: NRC3_random_hg19_34_o1 (dsDNA)
DNA 1: GCATGATGCCTCCTTGGAGAAGTCCTGCATTCATCCGCGATTGACAGCGTAGAATGAAGG
DNA 2: CCTTCATTCTACGCTGTCAATCGCGGATGAATGCAGGACTTCTCCAAGGAGGCATCATGC
B23: NRC3_wobSeed17_DR0_G16C_o1 (dsDNA)
DNA 1: GCATATGTAGGTTAGCGTCATTCAGAAAGTAGGGAAGCGATTGACAGCGTAGAATGAAGG
DNA 2: CCTTCATTCTACGCTGTCAATCGCTTCCCTACTTTCTGAATGACGCTAACCTACATATGC
B24: NRC3_random_hg19_236_o1 (dsDNA)
DNA 1: GCGCCTAGCACTTGTGTTGACCATTCATTCAGTGCTGCGATTGACAGCGTAGAATGAAGG
DNA 2: CCTTCATTCTACGCTGTCAATCGCAGCACTGAATGAATGGTCAACACAAGTGCTAGGCGC
B25: NRC3_wobSeed100_DR4_A24C_o1 (dsDNA)
DNA 1: GCCCTACTGGGCCACGAAAGGTCCTTGATTCAGTGAGCGATTGACAGCGTAGAATGAAGG
DNA 2: CCTTCATTCTACGCTGTCAATCGCTCACTGAATCAAGGACCTTTCGTGGCCCAGTAGGGC
B26: NRC3_wobSeed76_DR3_C22A_o1 (dsDNA)
DNA 1: GCCCTACTGGGCCAAAAAGGTAATTGATGCCGATAAGCGATTGACAGCGTAGAATGAAGG
DNA 2: CCTTCATTCTACGCTGTCAATCGCTTATCGGCATCAATTACCTTTTTGGCCCAGTAGGGC
B27: NRC3_wobSeed124_DR5_C24T_o1 (dsDNA)
DNA 1: GCCCTACTGGGCCATTCAGAGGTTATTGATCATATGGCGATTGACAGCGTAGAATGAAGG
DNA 2: CCTTCATTCTACGCTGTCAATCGCCATATGATCAATAACCTCTGAATGGCCCAGTAGGGC
B28: NRC3_wobSeed44_DR1_G10A_o1 (dsDNA)
DNA 1: GCTGAATGAAGTTAAAGATCAGGGAACGTGGCGTCGGCGATTGACAGCGTAGAATGAAGG
DNA 2: CCTTCATTCTACGCTGTCAATCGCCGACGCCACGTTCCCTGATCTTTAACTTCATTCAGC
B29: NRC3_wobSeed44_DR1_G10C_o1 (dsDNA)
DNA 1: GCTGAATGACGTTAAAGATCAGGGAACGTGGCGTCGGCGATTGACAGCGTAGAATGAAGG
DNA 2: CCTTCATTCTACGCTGTCAATCGCCGACGCCACGTTCCCTGATCTTTAACGTCATTCAGC
B30: NRC3_random_hg19_79_o1 (dsDNA)
DNA 1: GCCAGTGTCCTCCTGAGAATTGGTTGTGTTGGGCAGGCGATTGACAGCGTAGAATGAAGG
DNA 2: CCTTCATTCTACGCTGTCAATCGCCTGCCCAACACAACCAATTCTCAGGAGGACACTGGC
B31: NRC3_wobSeed82_DR3_A9C_o1 (dsDNA)
DNA 1: GCATCGAACGGTCGACGAGGTGAGTATACACCGTTTGCGATTGACAGCGTAGAATGAAGG
DNA 2: CCTTCATTCTACGCTGTCAATCGCAAACGGTGTATACTCACCTCGTCGACCGTTCGATGC

What follows are binders tested against RXRa (Homo sapiens, UniProt P19793) (assay: no ligand; PBM; 180 nM; PBS pH 7.4, 2% milk, 0.02% Triton X-100, 1 mM DTT, BSA, 0.4 mg/ml salmon testes DNA). Conditions: tags: His cleaved; chain copies: 2; label: surface-attached array probe.
RXRa, sequence (P19793 whole entry): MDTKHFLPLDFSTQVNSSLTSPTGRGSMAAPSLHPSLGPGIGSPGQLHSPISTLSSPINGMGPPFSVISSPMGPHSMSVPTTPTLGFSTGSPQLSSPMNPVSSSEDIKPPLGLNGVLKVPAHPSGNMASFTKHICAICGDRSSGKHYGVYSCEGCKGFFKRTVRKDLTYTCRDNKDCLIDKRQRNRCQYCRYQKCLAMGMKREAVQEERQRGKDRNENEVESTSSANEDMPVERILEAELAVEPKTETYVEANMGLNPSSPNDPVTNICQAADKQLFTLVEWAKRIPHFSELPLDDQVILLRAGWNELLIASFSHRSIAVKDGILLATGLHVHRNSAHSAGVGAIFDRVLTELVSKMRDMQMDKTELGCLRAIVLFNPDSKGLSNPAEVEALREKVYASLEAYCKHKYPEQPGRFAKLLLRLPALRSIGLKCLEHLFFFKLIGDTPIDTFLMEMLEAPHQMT

| Binder | binding signal |
| --- | --- |
| B1 | 0.2 PBM z-score against 500 random probes |
| B2 | 0.34 PBM z-score against 500 random probes |
| B3 | 0.34 PBM z-score against 500 random probes |
| B4 | 0.08 PBM z-score against 500 random probes |
| B5 | 0.08 PBM z-score against 500 random probes |
| B6 | 0.36 PBM z-score against 500 random probes |
| B7 | -0 PBM z-score against 500 random probes |
| B8 | -0.41 PBM z-score against 500 random probes |
| B9 | 0.45 PBM z-score against 500 random probes |
| B10 | 0.03 PBM z-score against 500 random probes |
| B11 | 0.42 PBM z-score against 500 random probes |
| B12 | 0.39 PBM z-score against 500 random probes |
| B13 | 0.1 PBM z-score against 500 random probes |
| B14 | 0.4 PBM z-score against 500 random probes |
| B15 | 3.04 PBM z-score against 500 random probes |
| B16 | 0.44 PBM z-score against 500 random probes |

| Binder | binding signal |
| --- | --- |
| B17 | 0.22 PBM z-score against 500 random probes |
| B18 | -0.31 PBM z-score against 500 random probes |
| B19 | -0.77 PBM z-score against 500 random probes |
| B20 | -0.56 PBM z-score against 500 random probes |
| B21 | 0.46 PBM z-score against 500 random probes |
| B22 | -0.46 PBM z-score against 500 random probes |
| B23 | 0.46 PBM z-score against 500 random probes |
| B24 | -0.35 PBM z-score against 500 random probes |
| B25 | 0.26 PBM z-score against 500 random probes |
| B26 | 0.01 PBM z-score against 500 random probes |
| B27 | 0.48 PBM z-score against 500 random probes |
| B28 | 0.44 PBM z-score against 500 random probes |
| B29 | 0.4 PBM z-score against 500 random probes |
| B30 | -0.79 PBM z-score against 500 random probes |
| B31 | 0.44 PBM z-score against 500 random probes |

What follows are binders tested against PPARa:RXRa (Homo sapiens, UniProt Q07869;P19793 full;full) (assay: no ligand; PBM; 270 nM : 90 nM RXRa; PBS pH 7.4, 2% milk, 0.02% Triton X-100, 1 mM DTT, BSA, 0.4 mg/ml salmon testes DNA). Conditions: tags: GST kept;His cleaved; copies: 1;1; label: surface-attached array probe.
In short: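 Binding z-scores were set against random background probes. The data came from custom Agilent 4×180K protein-binding microarrays carrying double-stranded probes with 34-nt variable regions, incubated 1 h with ligand-free nuclear receptor dimers. Partner-specific antibodies detected binding, and scanned fluorescence was regression-normalized.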

PPARa:RXRa, sequence (Q07869 whole entry, chain 1 of 2): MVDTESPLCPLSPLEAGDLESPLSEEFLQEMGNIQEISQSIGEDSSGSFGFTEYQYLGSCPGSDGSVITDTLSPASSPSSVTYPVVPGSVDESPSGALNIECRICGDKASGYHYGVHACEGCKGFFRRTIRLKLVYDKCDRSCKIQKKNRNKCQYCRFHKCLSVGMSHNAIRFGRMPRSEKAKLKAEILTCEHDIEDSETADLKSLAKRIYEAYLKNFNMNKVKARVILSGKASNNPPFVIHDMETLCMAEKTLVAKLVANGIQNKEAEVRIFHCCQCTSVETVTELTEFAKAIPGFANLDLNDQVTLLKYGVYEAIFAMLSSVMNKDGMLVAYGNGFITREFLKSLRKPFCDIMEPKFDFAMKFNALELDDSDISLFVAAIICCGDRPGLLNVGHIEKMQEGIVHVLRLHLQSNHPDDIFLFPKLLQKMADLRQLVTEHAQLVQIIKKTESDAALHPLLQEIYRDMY
PPARa:RXRa, sequence (P19793 whole entry, chain 2 of 2): as the sequence (P19793 whole entry) above

| Binder | binding signal |
| --- | --- |
| B3 | 0.2 PBM z-score against 500 random probes |
| B11 | 0.49 PBM z-score against 500 random probes |
| B15 | 3.33 PBM z-score against 500 random probes |
